# Results reported in paper PMC6016246, “Cytokinin Signaling in Mycobacterium tuberculosis” (mBio, 2018).
# Substitutions are numbered along the chain they refer to.
# T1: Rv0078 R48M (Mycobacterium tuberculosis, UniProt O53623 1-201, R48M)
# T1 sequence: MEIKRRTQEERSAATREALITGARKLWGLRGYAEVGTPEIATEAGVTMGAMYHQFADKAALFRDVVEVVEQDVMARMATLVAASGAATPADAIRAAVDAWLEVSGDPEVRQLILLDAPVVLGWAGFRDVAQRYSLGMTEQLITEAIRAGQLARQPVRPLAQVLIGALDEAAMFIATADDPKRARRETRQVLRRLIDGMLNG
# T2: Rv0078 (Mycobacterium tuberculosis, UniProt O53623 1-201)
# T2 sequence: T1 sequence with M48R
# B1: +19/-14 (WT) (dsDNA)
# DNA 1: GTACATTTACAAGCAGACTGCCGGTAACTTACCCCAGACCAGGGCAC
# DNA 2: GTGCCCTGGTCTGG
# DNA 3: GGTAAGTTACCGGCAGTCTGCTTGTAAATGTAC
# B2: probe S1 (central dimer G-to-A) (dsDNA)
# DNA 1: GTACATTTACAAGTAGACTACCGGTAACTTACC
# DNA 2: B1 DNA 3 with C14T, G20A
# Experiments:
# Rv0078 R48M = target: T1, Rv0078 R48M; experiment: EMSA; […], room temperature 30 min; […], buffer not stated; conditions: protein: recombinant; chain copies: 2; label: 5'-IRDye700 on S21
# Rv0078 = target: T2, Rv0078; experiment: as above; conditions: protein: recombinant; tags: C-terminal His6; chain copies: 4; label: IRDye700
Binder,binding result (Rv0078 R48M),binding result (Rv0078)
B1,no binding,–
B2,–,no binding
